Measurements reported in article PMC6624275.

Target: Hen egg-white lysozyme (Hewl) (hen) (UniProt P00698)
Sequence (P00698 19-147): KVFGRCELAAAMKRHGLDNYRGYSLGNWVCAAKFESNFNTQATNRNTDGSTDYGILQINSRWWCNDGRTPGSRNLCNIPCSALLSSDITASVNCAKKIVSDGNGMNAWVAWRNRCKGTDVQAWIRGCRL

Substance | reduction of Hewl (10 U/well)-mediated lysis of M. lysodeikticus cells (OD at 595 nm, 25 °C), rNm-ACP 6-180 pmol/well, read at 2 h and 24 h [%] | reduction of Hewl (10 U/well)-mediated lysis of M. lysodeikticus cells (OD at 595 nm, 25 °C), rDn-ACP 3-90 pmol/well, read at 2 h and 24 h [%]
recombinant Neisseria meningitidis Adhesin Complex Protein (rNm-ACP) (natural protein) | 80 | –
recombinant Dichelobacter nodosus Adhesin Complex Protein (rDn-ACP) (from UniProt A5EV15 1-230) (natural protein) | – | 100
